The test has as its target T1, androgen receptor (Homo sapiens, UniProt P10275).
T1 construct: expressed in transfected cells; host or cells: PC-3(AR)2 prostate cancer cells
T1 sequence (P10275 1-920): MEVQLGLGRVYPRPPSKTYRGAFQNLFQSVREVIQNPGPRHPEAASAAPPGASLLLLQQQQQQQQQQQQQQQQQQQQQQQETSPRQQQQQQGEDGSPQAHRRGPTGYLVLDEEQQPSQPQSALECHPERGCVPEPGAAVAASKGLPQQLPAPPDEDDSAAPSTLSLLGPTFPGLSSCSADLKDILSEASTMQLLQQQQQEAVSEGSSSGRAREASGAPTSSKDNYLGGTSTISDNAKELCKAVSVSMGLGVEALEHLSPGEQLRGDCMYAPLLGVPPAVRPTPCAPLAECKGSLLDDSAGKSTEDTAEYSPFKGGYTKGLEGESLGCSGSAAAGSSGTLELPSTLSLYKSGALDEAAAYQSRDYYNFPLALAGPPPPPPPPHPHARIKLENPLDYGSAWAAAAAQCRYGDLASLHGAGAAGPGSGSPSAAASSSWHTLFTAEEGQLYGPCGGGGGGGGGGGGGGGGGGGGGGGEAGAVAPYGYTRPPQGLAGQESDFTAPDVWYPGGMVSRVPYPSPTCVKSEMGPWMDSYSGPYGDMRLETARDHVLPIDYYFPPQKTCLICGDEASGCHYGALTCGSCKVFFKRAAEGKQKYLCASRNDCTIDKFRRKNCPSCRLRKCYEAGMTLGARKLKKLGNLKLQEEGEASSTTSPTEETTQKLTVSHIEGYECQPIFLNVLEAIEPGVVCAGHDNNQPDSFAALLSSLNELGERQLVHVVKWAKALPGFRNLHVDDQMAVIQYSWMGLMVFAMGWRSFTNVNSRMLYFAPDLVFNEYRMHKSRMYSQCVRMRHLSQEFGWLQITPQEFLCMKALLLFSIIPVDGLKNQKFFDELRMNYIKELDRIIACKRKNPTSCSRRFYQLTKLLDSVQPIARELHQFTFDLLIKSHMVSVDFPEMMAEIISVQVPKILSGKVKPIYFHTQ
Put plainly: DHT-induced AR transactivation in PC-3(AR)2 cells, MMTV-Luc reporter. The format is cell-based. As for the experimental part: Prostate cancer cells (stable transfected with androgen receptor) were transiently transfected with PSF-A expression vector together with a MMTV-Luc reporter vector. Cells were treated with either vehicle or 1 nM DHT for at least 24 hours. Luciferase activities were measured and normalized by β-galactosidase acitvity. Data shown in FIG. 10 are the mean of three separate experiments performed in triplicate ±S.E. Note: the empty vector pcDNA3 was added to the DNA mixture to ensure that the amounts of CMV promoter in all the transfection assays are equal.
Prostate cancer cells (stably transfected with androgen receptor) were transiently transfected with PSF-F expression vector together with a MMTV-Luc reporter vector. Cells were treated with either vehicle or 1 nM DHT for at least 24 hours. Luciferase activities were measured and normalized by β-galactosidase acitvity. Data shown in FIG. 11 are the mean of three separate experiments performed in triplicate ±S.E. Note: the empty vector pcDNA3 was added to the DNA mixture to ensure that the amounts of CMV promoter in all the transfection assays are equal.
PC-3(AR)2 cells are PC-3 cells rendered androgen sensitive by stable transfection of a human androgen receptor cDNA. PC-3(AR)2 cells were transiently transfected with a constant AR expression vector together without or with increasing doses of PSF-A vectors. […]

B1: polypyrimidine tract binding protein-associated splicing factor (protein)
chain: MSRDRFRSRGGGGGGFHRRGGGGGRGGLHDFRSPPPGMGLNQNRGPMGPGPGQSGPKPPIPPPPPHQQQQQPPPQQPPPQQPPPHQPPPHPQPHQQQQPPPPPQDSSKPVVAQGPGPAPGVGSAPPASSSAPPATPPTSGAPPGSGPGPTPTPPPAVTSAPPGAPPPTPPSSGVPTTPPQAGGPPPPPAAVPGPGPGPKQGPGPGGPKGGKMPGGPKPGGGPGLSTPGGHPKPPHRGGGEPRGGRQHHPPYHQQHHQGPPPGGPGGRSEEKISDSEGFKANLSLLRRPGEKTYTQRCRLFVGNLPADITEDEFKRLFAKYGEPGEVFINKGKGFGFIKLESRALAEIAKAELDDTPMRGRQLRVRFATHAAALSVRNLSPYVSNELLEEAFSQFGPIERAVVIVDDRGRSTGKGIVEFASKPAARKAFERCSEGVFLLTTTPRPVIVEPLEQLDDEDGLPEKLAQKNPMYQKERETPPRFAQHGTFEYEYSQRWKSLDEMEKQQREQVEKNMKDAKDKLESEMEDAYHEHQANLLRQDLMRRQEELRRMEELHNQEMQKRKEMQLRQEEERRRREEEMMIRQREMEEQMRRQREESYSRMGYMDPRERDMRMGGGGAMNMGDPYGSGGQKFPPLGGGGGIGYEANPGVPPATMSGSMMGSDMRTERFGQGGAGPVGGQGPRGMGPGTPAGYGRGREEYEGPNKKPRF
notes: expressed from transfected His-PSF vector or in vitro translated
With B1, the “production/secretion of PSA” value is given as “blocks”. Besides, the “androgen receptor activation of the MMTV promoter” value (PC-3(AR)2 cells, 1 nM DHT) was “blocks”.

For the origin of these results see US20070286806A1, “Methods and Compositions for Modulating a Steroid Receptor” (Mount Sinai Hospital, priority 2004, published 2007).
